The values that follow come from doi:10.1101/2024.10.04.616715 (bioRxiv, 2024).

The data set concerns the molecule itself. The data set can be described thus: cryo-EM structure.

B1: human XPR1 (Xenotropic and Polytropic Retrovirus Receptor 1) (natural protein, UniProt Q9UBH6 1-696, looked up)
chain: MKFAEHLSAHITPEWRKQYIQYEAFKDMLYSAQDQAPSVEVTDEDTVKRYFAKFEEKFFQTCEKELAKINTFYSEKLAEAQRRFATLQNELQSSLDAQKESTGVTTLRQRRKPVFHLSHEERVQHRNIKDLKLAFSEFYLSLILLQNYQNLNFTGFRKILKKHDKILETSRGADWRVAHVEVAPFYTCKKINQLISETEAVVTNELEDGDRQKAMKRLRVPPLGAAQPAPAWTTFRVGLFCGIFIVLNITLVLAAVFKLETDRSIWPLIRIYRGGFLLIEFLFLLGINTYGWRQAGVNHVLIFELNPRSNLSHQHLFEIAGFLGILWCLSLLACFFAPISVIPTYVYPLALYGFMVFFLINPTKTFYYKSRFWLLKLLFRVFTAPFHKVGFADFWLADQLNSLSVILMDLEYMICFYSLELKWDESKGLLPNNSEESGICHKYTYGVRAIVQCIPAWLRFIQCLRRYRDTKRAFPHLVNAGKYSTTFFMVTFAALYSTHKERGHSDTMVFFYLWIVFYIISSCYTLIWDLKMDWGLFDKNAGENTFLREEIVYPQKAYYYCAIIEDVILRFAWTIQISITSTTLLPHSGDIIATVFAPLEVFRRFVWNFFRLENEHLNNCGEFRAVRDISVAPLNADDQTLLEQMMDQDDGVRNRQKNRSWKYNQSISLRRPRLASQSKARDTKVLIEDTDDEANT
Take B1: the “stoichiometry N” value was found to be 2.

The stoichiometry N is the number of molecules, sites or subunits per partner or assembly.
